The target in this test is Atg17 (Lachancea thermotolerans), crystallised construct (Lachancea thermotolerans). Nature of the test: SEC-MALS.

Broadly, the stoichiometry N is the number of molecules, sites or subunits per partner or assembly. Substance “Atg17 (Lachancea thermotolerans), crystallised construct (natural protein)” returned a stoichiometry N of 2.

These data come from paper PMC3806636.
